Assay results reported in patent US20140086835A1 (UNIVERSITY OF NORTH CAROLINA AT CHAPEL HILL, published 2014).

Molecular target: T1, recombinant human PSMA (extracellular domain) (human, UniProt Q04609 44-750)
T1 construct: extracellular domain; Bought (R&D Systems); Amine-coupled to a CM5 chip; also called prostate specific membrane antigen
Test: SPR (BIAcore 2000), PSMA on CM5 chip, 1:1 Langmuir fit

T1 sequence (Q04609 44-750): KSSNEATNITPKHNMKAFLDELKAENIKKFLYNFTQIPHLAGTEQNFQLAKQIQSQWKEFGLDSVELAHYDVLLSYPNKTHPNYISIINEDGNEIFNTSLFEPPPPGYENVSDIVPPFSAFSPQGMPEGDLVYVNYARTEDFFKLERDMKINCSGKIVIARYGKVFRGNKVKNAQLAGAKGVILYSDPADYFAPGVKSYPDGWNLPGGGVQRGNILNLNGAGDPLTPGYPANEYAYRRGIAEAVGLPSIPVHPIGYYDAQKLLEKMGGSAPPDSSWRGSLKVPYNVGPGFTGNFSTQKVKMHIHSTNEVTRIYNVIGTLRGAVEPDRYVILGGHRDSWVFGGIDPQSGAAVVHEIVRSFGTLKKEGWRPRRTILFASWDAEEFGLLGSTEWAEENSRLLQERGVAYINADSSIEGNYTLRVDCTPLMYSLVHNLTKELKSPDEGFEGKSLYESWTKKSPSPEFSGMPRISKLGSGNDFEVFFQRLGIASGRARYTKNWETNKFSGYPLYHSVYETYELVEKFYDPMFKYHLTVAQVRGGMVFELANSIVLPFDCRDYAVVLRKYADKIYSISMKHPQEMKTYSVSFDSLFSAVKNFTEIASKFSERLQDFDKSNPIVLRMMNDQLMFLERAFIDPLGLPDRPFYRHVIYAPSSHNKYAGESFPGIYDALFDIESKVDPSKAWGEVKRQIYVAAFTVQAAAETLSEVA

B1: heptameric PSMA-binding peptide targeting ligand (designed binder)
chain: MWQPDTAHHWATLGPQPQPKPQPKPEPEPQPQGGMPPRPLDVLNRSLKSPVIVRLKGGREFRGTLDGYDIHMNLVLLDAEEIQNGEVVRKVGSVVIRGDTVVFVSPAPGGEHHHHHH
notes: Self-assembled homoheptamer; also called PSMA-Heptamer; P^PSMA heptamer
  Kd: 20 nM
  koff: 1.09e-06 s⁻¹
